Square brackets hold non-standard residues; d marks the D form. Peptide text beside a SMILES is read from it. * marks the point of attachment. Ala(1H-tetrazol-5-yl) = N[C@@H](Cc1nnn[nH]1)C(=O)O; Ms = CS(=O)(=O)*
T1: PAC1 receptor (UniProt P41586 21-468, limits assumed)
T1 sequence (looked up): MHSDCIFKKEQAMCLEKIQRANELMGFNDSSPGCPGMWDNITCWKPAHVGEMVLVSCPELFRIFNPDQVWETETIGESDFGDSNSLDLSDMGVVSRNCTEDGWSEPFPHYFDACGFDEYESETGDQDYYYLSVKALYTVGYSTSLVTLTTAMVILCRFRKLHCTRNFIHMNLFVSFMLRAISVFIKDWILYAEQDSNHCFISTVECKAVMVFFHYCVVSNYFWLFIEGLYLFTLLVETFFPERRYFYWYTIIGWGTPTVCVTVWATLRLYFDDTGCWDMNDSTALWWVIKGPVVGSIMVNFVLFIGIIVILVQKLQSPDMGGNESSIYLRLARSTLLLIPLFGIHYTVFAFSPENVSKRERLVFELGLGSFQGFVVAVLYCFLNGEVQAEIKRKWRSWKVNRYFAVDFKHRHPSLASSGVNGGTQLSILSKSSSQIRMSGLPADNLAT

T2: VPAC1 receptor (UniProt P32241 31-457, limits assumed)
T2 sequence (looked up): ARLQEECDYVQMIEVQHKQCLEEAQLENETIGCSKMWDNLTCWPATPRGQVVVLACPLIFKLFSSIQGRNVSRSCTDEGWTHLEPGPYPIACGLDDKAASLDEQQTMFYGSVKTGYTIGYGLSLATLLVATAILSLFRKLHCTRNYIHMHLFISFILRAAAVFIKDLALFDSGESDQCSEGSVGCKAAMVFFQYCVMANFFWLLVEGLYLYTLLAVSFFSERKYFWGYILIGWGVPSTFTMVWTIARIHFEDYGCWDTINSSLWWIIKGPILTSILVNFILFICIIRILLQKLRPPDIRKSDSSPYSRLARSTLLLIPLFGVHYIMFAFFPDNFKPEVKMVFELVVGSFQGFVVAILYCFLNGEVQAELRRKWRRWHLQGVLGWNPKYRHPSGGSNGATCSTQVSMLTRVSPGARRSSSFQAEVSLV

B1: Peptide 11 (peptide)
peptide: HSXGIFTXSYSRYRKQXAVKKYLAAVL
modifications: N-terminal mesyl (Ms-); Tz (aspartic acid with carboxyl group replaced by tetrazole) at positions 3 and 8; norleucine at position 17; C-terminal amide (NH2)
B2: Peptide 10 (peptide)
peptide: HSXGIFTXSYSRYRKQMAVKKYLAAVL
modifications: N-terminal acetyl (Ac-); Tz (aspartic acid with carboxyl group replaced by tetrazole) at positions 3 and 8; C-terminal amide (NH2)
B3: Peptide 17 (peptide)
peptide: HSXGIFTXSYSRYRKALAVKKYLAAVL
modifications: N-terminal acetyl (Ac-); Tz (aspartic acid with carboxyl group replaced by tetrazole) at positions 3 and 8; C-terminal amide (NH2)
B4: Peptide 16 (peptide)
peptide: HSXGIFTXSYARYRKQLAVKKYLAAVL
modifications: N-terminal acetyl (Ac-); Tz (aspartic acid with carboxyl group replaced by tetrazole) at positions 3 and 8; C-terminal amide (NH2)
B5: Peptide 15 (peptide)
peptide: HSXGIFTXAYSRYRKQLAVKKYLAAVL
modifications: N-terminal acetyl (Ac-); Tz (aspartic acid with carboxyl group replaced by tetrazole) at positions 3 and 8; C-terminal amide (NH2)
B6: Peptide 13 (peptide)
peptide: HSXGIFTXSYSRYRKXLAVKKYLAAVL
modifications: N-terminal acetyl (Ac-); Tz (aspartic acid with carboxyl group replaced by tetrazole) at positions 3 and 8; egTz (glutamine with amide replaced by tetrazole) at position 16; C-terminal amide (NH2)
B7: Peptide 12 (peptide)
peptide: HSXGIFTXSYSRYRKQLAVKKYLAAVL
modifications: N-terminal mesyl (Ms-); Tz (aspartic acid with carboxyl group replaced by tetrazole) at positions 3 and 8; C-terminal amide (NH2)
B8: Peptide 18 (peptide)
peptide: HSXGIFTXSYSRYRKQAAVKKYLAAVL
modifications: N-terminal acetyl (Ac-); Tz (aspartic acid with carboxyl group replaced by tetrazole) at positions 3 and 8; C-terminal amide (NH2)
B9: Peptide 5 (peptide)
peptide: HSXGIFTXSYSRYRKQMAVKKYLAAVL
modifications: Tz (aspartic acid with carboxyl group replaced by tetrazole) at positions 3 and 8; C-terminal amide (NH2)
B10: Peptide 19 (peptide)
peptide: HSXGIFTXSYSRYRKQLAAKKYLAAVL
modifications: N-terminal acetyl (Ac-); Tz (aspartic acid with carboxyl group replaced by tetrazole) at positions 3 and 8; C-terminal amide (NH2)
B11: Peptide 14 (peptide)
peptide: HAXGIFTXSYSRYRKQLAVKKYLAAVL
modifications: N-terminal acetyl (Ac-); Tz (aspartic acid with carboxyl group replaced by tetrazole) at positions 3 and 8; C-terminal amide (NH2)
B12: Peptide 20 (peptide)
peptide: HSXGIFTXSYSRYRKQLAVKKYLAAVA
modifications: N-terminal acetyl (Ac-); Tz (aspartic acid with carboxyl group replaced by tetrazole) at positions 3 and 8; C-terminal amide (NH2)
B13: Peptide 4 (peptide)
peptide: HSDGIFTXSYSRYRKQMAVKKYLAAVL
modifications: Tz (aspartic acid with carboxyl group replaced by tetrazole) at position 8; C-terminal amide (NH2)
B14: Peptide 3 (peptide)
peptide: HSXGIFTDSYSRYRKQMAVKKYLAAVL
modifications: Tz (aspartic acid with carboxyl group replaced by tetrazole) at position 3; C-terminal amide (NH2)

Target: T1, PAC1 receptor
Assay: cell-based or functional assay
Conditions: not given

EC50 (PAC1R), cAMP inducing effect [nM] | Molecule
0.038 | B1
0.076 | B2
0.099 | B3
0.33 | B4
0.061 | B5
0.132 | B6
0.023 | B7
0.061 | B8
0.033 | B9
0.094 | B10
0.074 | B11
0.08 | B12
0.04 | B13

Target: T2, VPAC1 receptor
Assay: cell-based or functional assay
Conditions: not given

EC50 (VPAC1R), cAMP inducing effect [nM] | Molecule
0.19 | B1
0.101 | B2
0.132 | B3
0.065 | B4
0.149 | B5
0.072 | B6
0.087 | B7
0.033 | B8
0.064 | B9
0.044 | B10
0.101 | B14
0.099 | B11
0.04 | B12
0.053 | B13

Test system: not listed separately
Assay: Peptide stability test, Tris buffer (pH 7.0), 60° C. storage, HPLC remaining rate
Format: physicochemical
Conditions: Table 7-2; 100 μM in Tris buffer pH 7.0
Method: Peptides 1, 2 and 6 to 9 synthesized in Example 2 were weighed and dissolved in Tris buffer (pH 7.0) to prepare 1.0 mM peptide solutions. Each solution was filtered with a Chromatdisk (product of Merck Millipore, Millex-GV, 0.22 μm). The filtrate was diluted to 100 μM with Tris buffer (pH 7.0) and dispensed into a tube (Protein LoBind Tube by Eppendorf Co.). The prepared peptide solutions were incubated for 1 week or 2 weeks in a 60° C. thermostatic bath to obtain stored samples. A simultaneously prepared sample among the peptide solutions that was not stored was used as a standard sample (initial sample). The standard sample and the stored samples were stored at −30° C. until sample analysis. Each stored sample was measured under the following HPLC analysis conditions 2, and the remaining rate after correction for water for each peptide among the stored samples was calculated in the same manner as Example 3. Guard column: XSelect CSH C18 by Waters Co., 5 μm, 4.6×20 mm Guard Cartridge Detection wavelength: 220 nm Mobile phase A: 0.1% formic acid aqueous solution Mobile phase B: 0.1% acetonitrile formate solution Measuring time: 20 minutes Measuring sample injection rate: 50 μL Flow rate: 1.0 mL/min Column temperature: 40° C. Sample cooler: 25° C. Mobile phase delivery: The mixing ratio of mobile phase A and mobile phase B was varied as shown in Table 5 for linear concentration gradient control. Peptides 12 to 25, 27 and 28 synthesized in Example 2 were weighed and dissolved in Tris buffer (pH 7.0) to prepare 1.0 mM peptide solutions. Each solution was filtered with a Chromatdisk (product of Merck Millipore, Millex-GV, 0.22 μm). The filtrate was diluted to 100 μM with Tris buffer (pH 7.0) and dispensed into a tube (Protein LoBind Tube by Eppendorf Co.). The prepared peptide solutions were incubated for one week or 2 weeks in a 60° C. thermostatic bath to obtain stored samples. A simultaneously prepared sample among the peptide solutions that was not stored was used as a standard sample (initial sample). The standard sample and the stored samples were stored at −30° C. until sample analysis. The remaining rate after correction for water for each peptide among the stored samples was calculated in the same manner as Example 4, and the results are shown in Table 7. Peptides 29 to 34 synthesized in Example 2 were weighed and dissolved in Tris buffer (pH 7.0) to prepare 1.0 mM peptide solutions. Each solution was filtered with a Chromatdisk (product of Merck Millipore, Millex-GV, 0.22 μm). The filtrate was diluted to 100 μM with Tris buffer (pH 7.0) and dispensed into a tube (Protein LoBind Tube by Eppendorf Co.). The prepared peptide solutions were incubated for 2 weeks in a 60° C. thermostatic bath to obtain stored samples. A simultaneously prepared sample among the peptide solutions that was not stored was used as a standard sample (initial sample). The standard sample and the stored samples were stored at −30° C. until sample analysis. The remaining rate after correction for water for each peptide among the stored samples was calculated in the same manner as Example 4, and the results are shown in Table 7-2. Peptide 26 synthesized in Example 2 was weighed and dissolved in Tris buffer (pH 7.0) to prepare a 1.0 mM peptide solution. The solution was filtered with a Chromatdisk (product of Merck Millipore, Millex-GV, 0.22 μm). The filtrate was diluted to 100 μM with Tris buffer (pH 7.0) and dispensed into a tube (Protein LoBind Tube by Eppendorf Co.). The prepared peptide solution was incubated for one week or 2 weeks in a 60° C. thermostatic bath to obtain stored samples. A simultaneously prepared sample among the peptide solutions that was not stored was used as a standard sample (initial sample). The standard sample and the stored sample were stored at −30° C. until sample analysis. […]

remaining rate after correction for water, 60° C., 2 weeks preservation [%] | Molecule
92.2 | CC[C@H](C)[C@H](NC(=O)[C@H](C)NC(=O)[C@H](Cc1nnn[nH]1)NC(=O)[C@H](CO)NC(=O)[C@H](Cc1c[nH]cn1)NS(C)(=O)=O)C(=O)N[C@@H](Cc1ccccc1)C(=O)N[C@H](C(=O)N[C@@H](Cc1nnn[nH]1)C(=O)N[C@@H](CO)C(=O)N[C@@H](Cc1ccc(O)cc1)C(=O)N[C@@H](CO)C(=O)N[C@@H](CCCNC(=N)N)C(=O)N[C@@H](Cc1ccc(O)cc1)C(=O)N[C@@H](CCCNC(=N)N)C(=O)N[C@@H](CCCCN)C(=O)N[C@@H](CCC(N)=O)C(=O)N[C@@H](CC(C)C)C(=O)N[C@@H](C)C(=O)N[C@H](C(=O)N[C@@H](CCCCN)C(=O)N[C@@H](CCCCN)C(=O)N[C@@H](Cc1ccc(O)cc1)C(=O)N[C@@H](CC(C)C)C(=O)N[C@@H](C)C(=O)N[C@@H](C)C(=O)N[C@H](C(=O)N[C@@H](CC(C)C)C(N)=O)C(C)C)C(C)C)[C@@H](C)O [Peptide 30] (Ms-HS[Ala(1H-tetrazol-5-yl)]AIFT[Ala(1H-tetrazol-5-yl)]SYSRYRKQLAVKKYLAAVL-NH2)

Same assay, conditions: Table 7; 100 μM in Tris buffer pH 7.0

remaining rate after correction for water, 60° C., 1 week preservation [%] | remaining rate after correction for water, 60° C., 2 weeks preservation [%] | Molecule
97.8 | 93.4 | CC[C@H](C)[C@H](NC(=O)CNC(=O)[C@H](Cc1nnn[nH]1)NC(=O)[C@H](CO)NC(=O)[C@H](Cc1c[nH]cn1)NC(C)=O)C(=O)N[C@@H](Cc1ccccc1)C(=O)N[C@H](C(=O)N[C@@H](Cc1nnn[nH]1)C(=O)N[C@@H](CO)C(=O)N[C@@H](Cc1ccc(O)cc1)C(=O)N[C@@H](CO)C(=O)N[C@@H](CCCNC(=N)N)C(=O)N[C@@H](Cc1ccc(O)cc1)C(=O)N[C@@H](CCCNC(=N)N)C(=O)N[C@@H](CCCCN)C(=O)N[C@@H](C)C(=O)N[C@@H](CC(C)C)C(=O)N[C@@H](C)C(=O)N[C@H](C(=O)N[C@@H](CCCCN)C(=O)N[C@@H](CCCCN)C(=O)N[C@@H](Cc1ccc(O)cc1)C(=O)N[C@@H](CC(C)C)C(=O)N[C@@H](C)C(=O)N[C@@H](C)C(=O)N[C@H](C(=O)N[C@@H](CC(C)C)C(N)=O)C(C)C)C(C)C)[C@@H](C)O [Peptide 17] (Ac-HS[Ala(1H-tetrazol-5-yl)]GIFT[Ala(1H-tetrazol-5-yl)]SYSRYRKALAVKKYLAAVL-NH2)
98.1 | 94.3 | CC[C@H](C)[C@H](NC(=O)CNC(=O)[C@H](Cc1nnn[nH]1)NC(=O)[C@H](C)NC(=O)[C@H](Cc1c[nH]cn1)NC(C)=O)C(=O)N[C@@H](Cc1ccccc1)C(=O)N[C@H](C(=O)N[C@@H](Cc1nnn[nH]1)C(=O)N[C@@H](C)C(=O)N[C@@H](Cc1ccc(O)cc1)C(=O)N[C@@H](CO)C(=O)N[C@@H](CCCNC(=N)N)C(=O)N[C@@H](Cc1ccc(O)cc1)C(=O)N[C@@H](CCCNC(=N)N)C(=O)N[C@@H](CCCCN)C(=O)N[C@@H](CCC(N)=O)C(=O)N[C@@H](CC(C)C)C(=O)N[C@@H](C)C(=O)N[C@H](C(=O)N[C@@H](CCCCN)C(=O)N[C@@H](CCCCN)C(=O)N[C@@H](Cc1ccc(O)cc1)C(=O)N[C@@H](CC(C)C)C(=O)N[C@@H](C)C(=O)N[C@@H](C)C(=O)N[C@H](C(=O)N[C@@H](CC(C)C)C(N)=O)C(C)C)C(C)C)[C@@H](C)O [Peptide 24] (Ac-HA[Ala(1H-tetrazol-5-yl)]GIFT[Ala(1H-tetrazol-5-yl)]AYSRYRKQLAVKKYLAAVL-NH2)
